In article PMC11551740 one finds stoichiometry N data, which are given here for one substance.

The assay addresses M.EcoGII (methyltransferase EcoGII) (Escherichia coli). As to the kind of experiment: SEC; 50-100 ug protein on Superdex 200 Increase 10/300 GL, 0.75 ml/min, 20 mM HEPES (pH 7.0 in the methods, pH 7.4 in the legend), 250 mM NaCl; molecular weight estimated from a calibration curve of LMW markers.

By stoichiometry N is commonly meant a count of units in the complex or per binding partner. Turning to “M.EcoGII (methyltransferase EcoGII) (enzyme)”, the stoichiometry N is 2.
